PMC4564177
pKi: −log10 of the molar value.

Columns and labels:
Experiment in all cases: fluorescence polarisation; competition set-up: constant concentration of isolated PSD95 PDZ domain and Cy5-labeled reference ligand titrated with the unlabeled CRHR1 peptide
[1] = target: isolated PDZ1 domain of PSD95 (UniProt P78352)
[2] = target: isolated PDZ1-2 tandem of PSD95 (UniProt P78352)
[3] = target: isolated PDZ2 domain of PSD95 (UniProt P78352)
[4] = target: isolated PDZ3 domain of PSD95 (UniProt P78352)
isolated PDZ3 domain of PSD95, sequence (P78352 whole entry, the tested form may be a part): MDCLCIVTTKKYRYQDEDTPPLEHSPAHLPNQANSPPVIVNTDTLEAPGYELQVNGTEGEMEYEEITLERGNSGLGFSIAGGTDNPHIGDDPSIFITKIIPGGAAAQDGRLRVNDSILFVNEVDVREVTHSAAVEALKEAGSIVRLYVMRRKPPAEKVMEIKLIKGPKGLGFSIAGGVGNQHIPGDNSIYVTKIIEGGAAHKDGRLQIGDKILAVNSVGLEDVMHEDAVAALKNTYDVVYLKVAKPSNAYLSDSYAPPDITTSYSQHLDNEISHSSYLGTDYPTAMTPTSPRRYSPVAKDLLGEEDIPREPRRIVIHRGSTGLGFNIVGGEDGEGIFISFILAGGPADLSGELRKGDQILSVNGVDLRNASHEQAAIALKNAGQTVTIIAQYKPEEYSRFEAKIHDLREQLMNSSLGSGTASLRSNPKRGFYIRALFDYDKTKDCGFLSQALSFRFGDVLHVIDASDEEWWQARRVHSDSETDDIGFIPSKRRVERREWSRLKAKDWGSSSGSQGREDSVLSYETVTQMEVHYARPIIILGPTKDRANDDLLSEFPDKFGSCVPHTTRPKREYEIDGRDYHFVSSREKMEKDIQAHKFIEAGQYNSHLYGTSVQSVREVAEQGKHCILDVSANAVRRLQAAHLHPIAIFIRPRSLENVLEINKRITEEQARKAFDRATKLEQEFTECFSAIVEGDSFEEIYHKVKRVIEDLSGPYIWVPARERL

C-terminal 10 amino acids of CRHR1 (unlabeled CRHR1 peptide), sequence (P35347 whole entry, looked up, tested part not stated): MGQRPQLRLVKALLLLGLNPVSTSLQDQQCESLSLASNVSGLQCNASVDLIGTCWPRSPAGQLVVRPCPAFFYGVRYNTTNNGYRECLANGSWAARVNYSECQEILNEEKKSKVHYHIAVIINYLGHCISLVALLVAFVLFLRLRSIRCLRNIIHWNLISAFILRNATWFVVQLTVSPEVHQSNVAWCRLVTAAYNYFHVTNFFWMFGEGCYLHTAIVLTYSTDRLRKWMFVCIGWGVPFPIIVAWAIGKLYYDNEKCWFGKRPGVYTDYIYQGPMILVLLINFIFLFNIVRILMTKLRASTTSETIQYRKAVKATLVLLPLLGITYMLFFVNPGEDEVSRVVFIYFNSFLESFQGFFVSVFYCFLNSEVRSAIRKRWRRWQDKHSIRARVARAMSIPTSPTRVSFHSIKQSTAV
isolated PDZ2 domain of PSD95, sequence (P78352 whole entry, the tested form may be a part): as the sequence (P78352 whole entry, the tested form may be a part) above
isolated PDZ1-2 tandem of PSD95, sequence (P78352 whole entry, the tested form may be a part): as above
isolated PDZ1 domain of PSD95, sequence (P78352 whole entry, the tested form may be a part): as above

pKi [1]: 4.11
pKi [2]: 4.62
pKi [3]: 4.72
pKi [4]: 4.32
Substance: C-terminal 10 amino acids of CRHR1 (unlabeled CRHR1 peptide) (from UniProt P35347 406-415)
